The values that follow come from the RNAGym collection of RNA variant scans (doi:10.1101/gr.219683.116).

B1: mRNA-splicing (parent)
chain: AGUUGCUGCUGGGAGCUCCAGCACAGUGAAAUGGACAGAAGGGCAGAGCAA

The variants in this data set derive from B1. Kind of data set: exon inclusion enrichment index; higher = more inclusion; WT1 exon 5 minigene, HEK293.
On to AGCCGAAGAAGGGAGCUCCAGCACAGUGAAAUGGACAGAAGGGCAGAGCAA [U3C U4C C6A U7A C9A U10A], for which the “exon inclusion enrichment index” value was found to be 1.44.
Regarding AGUUAGGGAUGGGAGCUCCAGCACAGUGAAAUGGACAGAAGGGCAGGACAA [G5A C6G U7G C9A A47G G48A], the “exon inclusion enrichment index” value came out at 0.000837.
Take AGUUACCACCGGGAGCUCCAGCACAGUGAUGUGGACAGAAGGGCAGAGCAA [G5A U7C G8A U10C A30U A31G]: the “exon inclusion enrichment index” value worked out at 2.36.
With AGUUCACACAGGGAGCUCCAGCACAGUGAAAUGGACAGAAGGUCAGAGCAA [G5C C6A U7C G8A U10A G43U], the “exon inclusion enrichment index” value was found to be 0.0948.
To AGUUCGCGCCGGGAGCUCCAGCACAGUGAAAUGGACACAAGGGCAGAGCAA [G5C C6G U7C U10C G38C] belongs 2.56; to AGUUACCACCGGGCUCUCCAGCACAGUGAAAUGGACAGAAGGGCAGAGCAA [G5A U7C G8A U10C A14C G15U], 1; to AGUUGCUGCUGGGAGCUCCAGAACAGUGAAAUGGACAGAAGGGCAGAGCAA [C22A], 2.09.
Turning to AGUUUCUUUUGGGAGCGCCAGCACAGUGAAAUGGACAGAAGGGCAGAGCAA [G5U G8U C9U U17G], the “exon inclusion enrichment index” value was found to be 0.13.
Take AGUUCGCGCCGUGAGCUCCAGCACAGUGAAAUGGACAGAAGGGCAGAGCAA [G5C C6G U7C U10C G12U]: the “exon inclusion enrichment index” value was 1.53.
In the case of AGUUACCACCGGGAGCUCCAGCACAGUGAAAGGGACAGAAGGGCAGAGCAA [G5A U7C G8A U10C U32G], the “exon inclusion enrichment index” value worked out at 0.244.
To ACGUAGGGAUGGGAGCUCCAGCACAGUGAAAUGGACAGAAGGGCAGAGCAA [G2C U3G G5A C6G U7G C9A] belongs 0.00533.
To AGUUGACGAUUGGAGCUCCAGCACAGUGAAAUGGACAGAAGGGCAGAGCAA [C6A U7C C9A G11U] belongs 2.1; to AGUUCUUCUCGGGGUCUCCAGCACAGUGAAAUGGACAGAAGGGCAGAGCAA [G5C C6U G8C C9U U10C A14G G15U], 0.546.
To AGUUUCUUUUGGGUACUCCAGCACAGUGAAAUGGACAGAAGGGCAGAGCAA [G5U G8U C9U A14U G15A] belongs 0.00362; to AGUUCACACAGGGAGCUCCAGCACAGUGAAAUGGUAAGAAGGGCAGAGCAA [G5C C6A U7C G8A U10A A35U C36A], 0.00105.
Take AGUUCACACAGGUUGCUCCAGCACAGUGAAAUGGACAGAAGGGCAGAGCAA [G5C C6A U7C G8A U10A G13U A14U]: the “exon inclusion enrichment index” value was determined as 0.0352.
On to AGUUGAAGAAGGGAGCUCCAGCACAUUGAAAUGGACAGAAGGGCAGAGCAA [C6A U7A C9A U10A G26U], for which the “exon inclusion enrichment index” value turned out to be 0.794.
For the variant AGUUGACGACGGGAGCUCCAGCACAGUGAAAUGGACAGAAUGGCAGAGCAA [C6A U7C C9A U10C G41U], the “exon inclusion enrichment index” value was 3.1.
To AGUUCACACACGGAGCUCCAGCACAGUGAAAUGGACAGAAGGGCAGAGCAA [G5C C6A U7C G8A U10A G11C] belongs 0.99.
To AGUUAGGGAUGCGAGCUCCAGCACAGUGAAAUGGACAGAAGGGCAGAGCAA [G5A C6G U7G C9A G12C] belongs 0.00529; to AGUAGUAUAUGGGAGCUCCAGCACAGUGAAAUGGACAGAAGGGCAGAGCAA [U4A C6U U7A G8U C9A], 0.00525.
On to AGUUGACGACGGGCGCUCCAGCACAGUGAAAUGGACAGAAGGGCAGAGCAA [C6A U7C C9A U10C A14C], for which the “exon inclusion enrichment index” value was determined as 3.07.
To AGUUCGCGCCGGGACGUCCAGCACAGUGAAAUGGACAGAAGGGCAGAGCAA [G5C C6G U7C U10C G15C C16G] belongs 3.66; to AGAUAGGGAUGGGAGCUCCAGCACAGUGAAAUGGACAGAAGGGCAGAGCAA [U3A G5A C6G U7G C9A], 0.0155; to AGUUAUAUAUGGGAGCUCCAGCACAGUGAAAUGGACAGAACUGCAGAGCAA [G5A C6U U7A G8U C9A G41C G42U], 0.445.
To AGUUAGGGAUGGGAGCUCCAGCACAGUGAAAUGGACAGCUGGGCAGAGCAA [G5A C6G U7G C9A A39C A40U] belongs 0.00672; to AGUUAGGGAUGGGAGCUCCAGCACAGUGAAAUGGACAGCGGGGCAGAGCAA [G5A C6G U7G C9A A39C A40G], 0.0112; to AGUUGAAGAAGGGAGCUCCAGCACAGGGAAAUGGACAGAAGGGCAGAGCAA [C6A U7A C9A U10A U27G], 0.189.
To AGUUGAAGAAGGGAGCUCCAGCACAGAGAAAUGGACAGAAGGGCAGAGCAA [C6A U7A C9A U10A U27A] belongs 0.945; to AGUUCGCGCCGGGAGCUCCAGCACAGUGAAAUGGACGUAAGGGCAGAGCAA [G5C C6G U7C U10C A37G G38U], 1.81; to AGUUACCACGCGGAGCUCCAGCACAGUGAAAUGGACAGAAGGGCAGAGCAA [G5A U7C G8A U10G G11C], 2.55.
Take AGUUCGGACCGGGAGCUCCAGCACAGUGAAAUGGACAGAAGGGCAGAGCAA [G5C C6G U7G G8A U10C]: the “exon inclusion enrichment index” value was found to be 2.87.
AGUUAGGGAUGGGAGCUCCGACACAGUGAAAUGGACAGAAGGGCAGAGCAA [G5A C6G U7G C9A A20G G21A]: the “exon inclusion enrichment index” value is 0.00277.
In the case of AGUUCACACAGGGAGCUCCAGCACCAUGAAAUGGACAGAAGGGCAGAGCAA [G5C C6A U7C G8A U10A A25C G26A], the “exon inclusion enrichment index” value was determined as 0.352.
As to AGUUGCUGCUGGGAGCUCCAGCACAGUGAAAUGUCCAGAAGGGCAGAGCAA [G34U A35C], the “exon inclusion enrichment index” value came to 0.0394.
To AGUUAUAUAUGGGCCCUCCAGCACAGUGAAAUGGACAGAAGGGCAGAGCAA [G5A C6U U7A G8U C9A A14C G15C] belongs 0.0124; to AGUUUCUUCAGGGAGCUCCAGCACAGUGAAAUGGACAGAAGGGCAGAGCAA [G5U G8U U10A], 0.444; to AGUUAUAUAUGGGAGCUCCAGCACAGUGAAAAAGACAGAAGGGCAGAGCAA [G5A C6U U7A G8U C9A U32A G33A], 0.00941.
To AGUUACCACCGGGAGCUCCAGCACGAUGAAAUGGACAGAAGGGCAGAGCAA [G5A U7C G8A U10C A25G G26A] belongs 4.73.
To AGUUCACACAGGGAGGGCCAGCACAGUGAAAUGGACAGAAGGGCAGAGCAA [G5C C6A U7C G8A U10A C16G U17G] belongs 0.00731; to AGUUGCUGCUGGGAACUCCAGCACAGUGAAAUGGACAGAAGGGCAGAGCAA [G15A], 0.048; to AGUUGCUGCUGGGAGCUCCAGCACAGUGAAAUUCACAGAAGGGCAGAGCAA [G33U G34C], 0.0208.
For AGUUAUAUAUGGGAGCUCCAGCACAGUGAAAUGGACACAAGGGCAGAGCAA [G5A C6U U7A G8U C9A G38C], the “exon inclusion enrichment index” value came to 0.0329.
As for AGUUAGGGAUGGGAGCUCCAGCACAGUGAAAUGGACAGCAGGGCAGAGCAA [G5A C6G U7G C9A A39C], the “exon inclusion enrichment index” value is 0.00101.
With AGUUAGGGAUGGGAGCUCCACAACAGUGAAAUGGACAGAAGGGCAGAGCAA [G5A C6G U7G C9A G21C C22A], the “exon inclusion enrichment index” value is 0.00656.
To AGUUUCUUUUGGGAGCUCCAGCACAGCUAAAUGGACAGAAGGGCAGAGCAA [G5U G8U C9U U27C G28U] belongs 0.0729; to AGUUCUUGACGGGAGCUCCAGCACAGUGAAAUGGACAGAAGGGCAGAGCAA [G5C C6U C9A U10C], 1.69; to AGUUCACACAGGGAGCUCCAGCACAGUGAAAUUGACAGAAGGGCAGAGCAA [G5C C6A U7C G8A U10A G33U], 0.0519.
To AGUUCGCGCCGGGAGCUCCAGCACAGUGAAAUGGGCAGAAGGGCAGAGCAA [G5C C6G U7C U10C A35G] belongs 1.93.
In the case of AGUUGAAGAAGGGAGCUCAAGCACAGUGAAAUGGACAGAAGGGCAGAGCAA [C6A U7A C9A U10A C19A], the “exon inclusion enrichment index” value turned out to be 0.348.
As for AGUUGAAGAAGGGAGCUCCAGCACAGUCCAAUGGACAGAAGGGCAGAGCAA [C6A U7A C9A U10A G28C A29C], the “exon inclusion enrichment index” value was found to be 0.683.
